Source: article PMC3195632

System: His6-H1.4 (unphosphorylated) (human)
Assay: EMSA

## 216-bp 601 mononucleosome
  binding signal (% shifted (H1-shifted band)): 35.9
